Our source for the koff values is patent US20260234290, “Antibodies to Stat3 Decoy Oligonucleotide” (The Regents of the University of California, published 2026).

Data set [1] has as its target 4E4 Fab (UniProt P01764;A0A075B6I4 SEQ:1-116,SEQ:1-110). In words: BLI; 2 uM Fab; RT; described as weak binding. Particulars: myc tag; Ni-NTA purified from E. coli BL21(DE3) periplasm; label: biotin; cyclic 15-mer double-stranded decoy. The procedure:
(§1) All buffers were filter sterilized with […] filters prior to preparing samples. Black 384 well microplates were used to set up BLI plates and streptavidin tips were purchased by Sartorius. Kinetic constants of Fabs were determined by Octet RED384 system with continuous shaking at 1000 rpm in RT. Prior to the experiment, biological tips (model name) were presoaked in buffer to allow for equilibration for 1 hour. Data were analyzed using 1:1 interaction model on the ForteBio data analysis software 12.0.
(Biolayer interferometry detects binding as a change in optical thickness at a sensor tip.)

Data set [2] has as its target SP1-B3 Fab (UniProt A0A0B4J1U7;A0A087WSX0 SEQ:1-120,SEQ:1-115). In words: BLI; 2 uM Fab; CS3D on streptavidin tips; RT; RAPID-sorted clone. Particulars: myc tag; Ni-NTA purified from E. coli BL21(DE3) periplasm; label: biotin; cyclic 15-mer double-stranded decoy. The procedure:
as §1

A word on the koff: it is a measure of how fast the partners let go of each other. A higher koff goes with fast dissociation.

Chain of 4E4 Fab (P01764 other isoform, or with tags, fused parts or gaps, chain 1 of 2): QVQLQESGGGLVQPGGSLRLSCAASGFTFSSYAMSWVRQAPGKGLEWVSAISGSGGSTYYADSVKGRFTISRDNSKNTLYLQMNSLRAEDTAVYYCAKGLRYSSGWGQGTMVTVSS
Chain of 4E4 Fab (A0A075B6I4 other isoform, or with tags, fused parts or gaps, chain 2 of 2): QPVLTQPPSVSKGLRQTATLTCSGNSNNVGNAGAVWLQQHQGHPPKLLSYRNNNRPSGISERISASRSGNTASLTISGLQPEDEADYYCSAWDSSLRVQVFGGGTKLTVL
Chain of SP1-B3 Fab (A0A0B4J1U7 other isoform, or with tags, fused parts or gaps, chain 1 of 2): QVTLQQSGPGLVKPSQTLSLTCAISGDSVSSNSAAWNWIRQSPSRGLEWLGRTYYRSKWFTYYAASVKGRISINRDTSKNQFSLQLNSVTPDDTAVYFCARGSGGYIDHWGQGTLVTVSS
Chain of SP1-B3 Fab (A0A087WSX0 other isoform, or with tags, fused parts or gaps, chain 2 of 2): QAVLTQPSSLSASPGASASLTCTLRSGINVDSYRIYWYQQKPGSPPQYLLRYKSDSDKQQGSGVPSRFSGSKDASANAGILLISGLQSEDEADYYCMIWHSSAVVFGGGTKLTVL

B1: CS3D (cyclic STAT3 decoy) (dsDNA)
DNA 1: CATTTCCCGTAAATC
DNA 2: GATTTACGGGAAATG
B1: the koff in data set [1] came to 0.111 s⁻¹; in data set [2] it was 0.0211 s⁻¹.
